{"source": "patent US20250289893A1", "about": "(OXFORD UNIVERSITY INNOVATION, published 2025)", "binders": {"B1": {"name": "16 (VR11834) (antibody, V domains shown)", "VH": "EVQLVESGGGLVKPGGSLKLSCAASGFTFSNYAMSWVRQTPEKRLEWVAAINSNGGSAYYPDTVKDRFTISRDNAKNTLYLQMSSLRSEDTALYYCARRFYYDYGWFAYWGQGTLVTVSS", "VL": "DIVLTQSPASLSASVGETVTITCRASENIDSYLAWYQQKQGKSPQLLVYAATLLADGVPSRFSGSGSGTQYSLKINSLQSEDVARYYCQHYYSSPWTFGGGTKLEIK", "notes": "also called OX16; antibody 16"}}, "key": {"[1]": {"biological_target": "Chinese variant CD1a protein (human) (UniProt P06126)", "sequence (P06126 18-295, change not shown)": "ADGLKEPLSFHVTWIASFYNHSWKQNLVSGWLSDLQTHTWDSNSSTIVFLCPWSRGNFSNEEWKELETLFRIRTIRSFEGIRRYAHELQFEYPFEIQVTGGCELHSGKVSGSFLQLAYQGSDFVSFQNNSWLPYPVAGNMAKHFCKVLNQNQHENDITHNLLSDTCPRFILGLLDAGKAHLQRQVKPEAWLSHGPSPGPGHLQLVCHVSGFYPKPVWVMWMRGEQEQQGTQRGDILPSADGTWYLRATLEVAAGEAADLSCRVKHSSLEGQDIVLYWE", "test": "ELISA, 1 µg/ml antibody"}, "[2]": {"biological_target": "Chinese variant CD1a protein (human) (UniProt P06126)", "test": "ELISA, 10 µg/ml antibody"}, "[3]": {"biological_target": "Chinese variant CD1a protein (human) (UniProt P06126)", "test": "ELISA, 0.1 µg/ml antibody"}, "[4]": {"biological_target": "Chinese variant CD1a protein (human) (UniProt P06126)", "test": "ELISA, 0.01 µg/ml antibody"}, "[5]": {"biological_target": "T1, Cynomolgus monkey CD1a protein (Cynomolgus monkey)", "T1 chain": "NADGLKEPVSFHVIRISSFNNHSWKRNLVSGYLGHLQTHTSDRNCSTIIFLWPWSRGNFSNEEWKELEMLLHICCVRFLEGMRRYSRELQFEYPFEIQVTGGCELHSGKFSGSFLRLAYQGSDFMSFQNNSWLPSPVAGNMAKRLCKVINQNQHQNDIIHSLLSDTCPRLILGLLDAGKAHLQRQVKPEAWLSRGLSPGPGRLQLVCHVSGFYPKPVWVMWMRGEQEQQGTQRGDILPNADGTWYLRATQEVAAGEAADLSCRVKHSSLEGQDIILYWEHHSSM", "test": "ELISA, 1 µg/ml antibody"}, "[6]": {"biological_target": "T1, Cynomolgus monkey CD1a protein", "test": "ELISA, 10 µg/ml antibody"}, "[7]": {"biological_target": "T2, human CD1b expressed on HEK-293 cells (human, UniProt P29016 18-333; P61769 21-119)", "T2 construct": "also called HEK - CD1b", "test": "flow cytometry, HEK-293 cells", "experimental": "(§1) CD1a-specific antibodies were identified by flow cytometry. Binding to proteins expressed on HEK, C1R and MOLT4 cell lines was assessed. […] The C1R-CD1a, C1R-empty vector and MOLT4 cell lines were washed in 1×PBS on the day required. All cell lines were counted and resuspended in 1×PBS and then stained for 30 minutes at 37° C. using the DiI or DiO cellular stains (Invitrogen). Cells were washed with flow cytometry buffer (1% bovine serum albumin, 2 mM EDTA and 0.1% sodium azide in PBS) before mixing 2 DiI-stained and DiO-stained populations together. The cells (20 μl/well) were then added to dilutions of antibody sample (B cell culture supernatant, TAP supernatant, clone supernatant, purified antibody solution) (20 μl/well) and incubated for 1 hour at 4° C. in a flow cytometry assay plate, before being washed with flow cytometry buffer. 10 μl/well of Alexafluor647-conjugated goat anti-species IgG Fc-specific F(ab′)2 fragment (Jackson ImmunoResearch), diluted 1:2500 in flow cytometry buffer, was added and incubated at 4° C. for 30 minutes, followed by washing with wash buffer. The fluorescence intensity was then measured on an iQue screener PLUS."}, "[8]": {"biological_target": "T3, human CD1c expressed on HEK-293 cells (human, UniProt P29017 18-333; P61769 21-119)", "T3 construct": "also called HEK - CD1c", "test": "flow cytometry, HEK-293 cells", "experimental": "as §1"}, "[9]": {"biological_target": "T4, human CD1d expressed on HEK-293 cells (human, UniProt P15813 20-335; P61769 21-119)", "T4 construct": "also called HEK - CD1d", "test": "flow cytometry, HEK-293 cells", "experimental": "as §1"}, "[10]": {"biological_target": "T5, human CD1a protein (pool B) (human, UniProt P06126 18-295, limits assumed)", "T5 construct": "Recombinant protein of the ELISA (coated) and the Biacore T200 titration; whole entry named; also called human CD1a pool B; full length CD1a", "T5 sequence (P06126 18-295 limits assumed)": "as the sequence (P06126 18-295, change not shown) above", "test": "ELISA, 0.1 µg/ml antibody", "experimental": "(§2) CD1a-specific antibodies were identified by ELISA. […] 20 μl/well of peroxidase-conjugated goat anti-species IgG Fc-specific F(ab′)2 fragment (Jackson ImmunoResearch), diluted 1:5000 in block buffer was added and incubated at room temperature for 1 hour, followed by washing with wash buffer.\nThe antibodies were titrated through a dilution series and compared to a control rabbit IgG antibody."}, "[11]": {"biological_target": "chimeric CD1a pool B protein [human CD1a lipid binding domain, mouse CD1d Ig domain] (human; mouse, UniProt P06126 18-201; P11609 205-297, limits assumed)", "sequence (P06126 other isoform, or with tags, fused parts or gaps mutant limits assumed)": "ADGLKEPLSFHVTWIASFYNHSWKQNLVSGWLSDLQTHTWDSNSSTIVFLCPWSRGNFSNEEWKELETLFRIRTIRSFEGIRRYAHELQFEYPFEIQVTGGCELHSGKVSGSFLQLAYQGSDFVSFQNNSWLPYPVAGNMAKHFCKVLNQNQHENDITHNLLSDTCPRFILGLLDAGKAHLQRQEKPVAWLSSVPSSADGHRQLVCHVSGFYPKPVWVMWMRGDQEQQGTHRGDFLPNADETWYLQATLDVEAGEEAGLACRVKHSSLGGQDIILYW", "test": "ELISA, 0.1 µg/ml antibody", "experimental": "as §2\nThe antibodies were titrated through a dilution series and compared to a control rabbit IgG antibody. […] Data shown for purified antibodies."}, "[12]": {"biological_target": "T1, Cynomolgus monkey CD1a protein", "test": "ELISA, 0.1 µg/ml antibody"}, "[13]": {"biological_target": "T1, Cynomolgus monkey CD1a protein", "test": "ELISA, 0.01 µg/ml antibody"}, "[14]": {"biological_target": "T6, human CD1a expressed on cells (human, UniProt P06126 17-327; P61769 21-119)", "T6 construct": "also called HEK - CD1a; C1R - CD1a", "test": "flow cytometry, C1R cells, 1 µg/ml antibody", "experimental": "(§3) Binding to proteins expressed on HEK, C1R and MOLT4 cell lines was assessed. […] The C1R-CD1a, C1R-empty vector and MOLT4 cell lines were washed in 1×PBS on the day required. All cell lines were counted and resuspended in 1×PBS and then stained for 30 minutes at 37° C. using the DiI or DiO cellular stains (Invitrogen). Cells were washed with flow cytometry buffer (1% bovine serum albumin, 2 mM EDTA and 0.1% sodium azide in PBS) before mixing 2 DiI-stained and DiO-stained populations together. The cells (20 μl/well) were then added to dilutions of antibody sample (B cell culture supernatant, TAP supernatant, clone supernatant, purified antibody solution) (20 μl/well) and incubated for 1 hour at 4° C. in a flow cytometry assay plate, before being washed with flow cytometry buffer. 10 μl/well of Alexafluor647-conjugated goat anti-species IgG Fc-specific F(ab′)2 fragment (Jackson ImmunoResearch), diluted 1:2500 in flow cytometry buffer, was added and incubated at 4° C. for 30 minutes, followed by washing with wash buffer. The fluorescence intensity was then measured on an iQue screener PLUS.\n(§4) Binding was quantified as fold change in fluorescence intensity geomean over background assessed by flow cytometry."}, "[15]": {"biological_target": "T6, human CD1a expressed on cells", "test": "flow cytometry, C1R cells, 10 µg/ml antibody", "experimental": "as §3, §4"}, "[16]": {"biological_target": "T6, human CD1a expressed on cells", "test": "flow cytometry, C1R cells, 0.1 µg/ml antibody", "experimental": "as §3, §4"}, "[17]": {"biological_target": "T6, human CD1a expressed on cells", "test": "flow cytometry, MOLT4 cells, 1 µg/ml antibody", "experimental": "as §1, §4"}, "[18]": {"biological_target": "T6, human CD1a expressed on cells", "test": "flow cytometry, MOLT4 cells, 10 µg/ml antibody", "experimental": "as §1, §4"}, "[19]": {"biological_target": "T6, human CD1a expressed on cells", "test": "flow cytometry, HEK-293 cells, 1 µg/ml antibody", "experimental": "as §3\n(§5) HEK-293 cells were transiently transfected with human CD1a, CD1b, CD1c or CD1d and co-transfected with human β2M."}, "[20]": {"biological_target": "T6, human CD1a expressed on cells", "test": "flow cytometry, MOLT4 cells, 0.1 µg/ml antibody", "experimental": "as §1, §4"}, "[21]": {"biological_target": "T7, Cynomolgus monkey CD1a expressed on HEK-293 cells (Cynomolgus monkey, UniProt A0A2K5VQ68 17-326)", "T7 sequence (A0A2K5VQ68 entry or part of it)": "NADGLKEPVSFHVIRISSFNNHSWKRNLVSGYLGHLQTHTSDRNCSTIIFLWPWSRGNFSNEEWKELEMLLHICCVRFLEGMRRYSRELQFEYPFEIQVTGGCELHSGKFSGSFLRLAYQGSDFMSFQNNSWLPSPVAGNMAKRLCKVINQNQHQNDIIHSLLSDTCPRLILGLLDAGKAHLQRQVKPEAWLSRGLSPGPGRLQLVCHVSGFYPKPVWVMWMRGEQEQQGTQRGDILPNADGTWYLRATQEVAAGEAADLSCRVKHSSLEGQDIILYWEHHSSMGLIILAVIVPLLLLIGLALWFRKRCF", "test": "flow cytometry, HEK-293 cells, 1 µg/ml antibody", "experimental": "as §3, §4"}, "[22]": {"biological_target": "T6, human CD1a expressed on cells", "test": "flow cytometry, HEK-293 cells, 10 µg/ml antibody", "experimental": "as §3, §5"}, "[23]": {"biological_target": "T7, Cynomolgus monkey CD1a expressed on …", "test": "flow cytometry, HEK-293 cells, 10 µg/ml antibody", "experimental": "as §3, §4"}, "[24]": {"biological_target": "T6, human CD1a expressed on cells", "test": "flow cytometry, HEK-293 cells, 0.1 µg/ml antibody", "experimental": "as §3, §5"}, "[25]": {"biological_target": "T7, Cynomolgus monkey CD1a expressed on …", "test": "flow cytometry, HEK-293 cells, 0.1 µg/ml antibody", "experimental": "as §3, §4"}, "[26]": {"biological_target": "T7, Cynomolgus monkey CD1a expressed on …", "test": "flow cytometry, HEK-293 cells, 0.01 µg/ml antibody", "experimental": "as §3, §4"}, "[27]": {"biological_target": "T5, human CD1a protein (pool B)", "test": "SPR (Biacore T200), antibody captured, human CD1a titrated, heterogeneous ligand model (KD)", "experimental": "(§6) The affinity of the purified antibodies to human CD1a was assessed using a Biacore T200 instrument (GE Healthcare) by capturing the antibody to an immobilized anti-species IgG F(ab′)2 followed by titration of human CD1a. Affinipure Goat anti-species IgG-F(ab′)2 fragment specific (Jackson ImmunoResearch) was immobilized on a CM5 Sensor Chip (GE Healthcare) via amine coupling chemistry to a capture level of ˜5000 response units (RUs). HBS-EP+ buffer (10 mM HEPES pH 7.4, 0.15 M NaCl, 3 mM EDTA, 0.05% Surfactant P20, GE Healthcare) was used as the running buffer with a flow rate of 10 μL/min. A 10 μL injection of test antibody at 0.5 μg/mL was used for capture by the immobilized Goat Anti-species Fab.\n(§7) Affinity was required to be <100 nM to be considered for progression."}, "[28]": {"biological_target": "T5, human CD1a protein (pool B)", "test": "SPR (Biacore T200), antibody captured, human CD1a titrated, heterogeneous ligand model (ka)", "experimental": "as §6, §7"}, "[29]": {"biological_target": "T5, human CD1a protein (pool B)", "test": "SPR (Biacore T200), antibody captured, human CD1a titrated, heterogeneous ligand model (kd)", "experimental": "as §6\n(§8) The surface was regenerated between cycles by injection of 2×10 μL of 40 mM HCl, interspersed by a 10 μL injection of 5 mM NaOH at flowrate of 10 μL/min. Background subtraction binding curves were analyzed using the Biacore T200 evaluation software following standard procedures. Kinetic parameters were determined from the fitting algorithm. This assay was performed at the clone supernatant and purified antibody stage.\nas §7"}, "[30]": {"biological_target": "T5, human CD1a protein (pool B)", "test": "SPR (Biacore T200), antibody captured, human CD1a titrated, heterogeneous ligand model (KD2)", "experimental": "as §6, §8, §7"}, "[31]": {"biological_target": "T5, human CD1a protein (pool B)", "test": "SPR (Biacore T200), antibody captured, human CD1a titrated, heterogeneous ligand model (ka 2)", "experimental": "as §6, §8, §7"}, "[32]": {"biological_target": "T5, human CD1a protein (pool B)", "test": "SPR (Biacore T200), antibody captured, human CD1a titrated, heterogeneous ligand model (kd 2)", "experimental": "as §6, §8, §7"}}, "data": [{"binder": "B1", "values": [{"measurement": "Optical Density (OD)", "setting": "[1]", "result": 1.35, "unit": "OD"}, {"measurement": "Optical Density (OD)", "setting": "[2]", "result": 1.44, "unit": "OD"}, {"measurement": "Optical Density (OD)", "setting": "[3]", "result": 1.3, "unit": "OD"}, {"measurement": "Optical Density (OD)", "setting": "[4]", "result": 1.01, "unit": "OD"}, {"measurement": "Optical Density (OD)", "setting": "[5]", "result": 0.58, "unit": "OD"}, {"measurement": "Optical Density (OD)", "setting": "[6]", "result": 0.49, "unit": "OD"}, {"measurement": "binding result", "setting": "[7]", "result": "no binding"}, {"measurement": "binding result", "setting": "[8]", "result": "no binding"}, {"measurement": "binding result", "setting": "[9]", "result": "no binding"}, {"measurement": "Optical Density (OD)", "setting": "[10]", "result": 0.59, "unit": "OD"}, {"measurement": "Optical Density (OD)", "setting": "[11]", "result": 0.7, "unit": "OD"}, {"measurement": "Optical Density (OD)", "setting": "[12]", "result": 0.57, "unit": "OD"}, {"measurement": "Optical Density (OD)", "setting": "[13]", "result": 0.46, "unit": "OD"}, {"measurement": "Fluorescence Intensity Geomean (normalized to background)", "setting": "[14]", "result": 10.1, "unit": "fold over background"}, {"measurement": "Fluorescence Intensity Geomean (normalized to background)", "setting": "[15]", "result": 7, "unit": "fold over background"}, {"measurement": "Fluorescence Intensity Geomean (normalized to background)", "setting": "[16]", "result": 10.2, "unit": "fold over background"}, {"measurement": "Fluorescence Intensity Geomean (normalized to background)", "setting": "[17]", "result": 15, "unit": "fold over background"}, {"measurement": "Fluorescence Intensity Geomean (normalized to background)", "setting": "[18]", "result": 7.5, "unit": "fold over background"}, {"measurement": "Fluorescence Intensity Geomean (normalized to background)", "setting": "[19]", "result": 19.6, "unit": "fold over background"}, {"measurement": "Fluorescence Intensity Geomean (normalized to background)", "setting": "[20]", "result": 14.4, "unit": "fold over background"}, {"measurement": "Fluorescence Intensity Geomean (normalized to background)", "setting": "[21]", "result": 7.6, "unit": "fold over background"}, {"measurement": "Fluorescence Intensity Geomean (normalized to background)", "setting": "[22]", "result": 10.2, "unit": "fold over background"}, {"measurement": "Fluorescence Intensity Geomean (normalized to background)", "setting": "[23]", "result": 8.8, "unit": "fold over background"}, {"measurement": "Fluorescence Intensity Geomean (normalized to background)", "setting": "[24]", "result": 12.9, "unit": "fold over background"}, {"measurement": "Fluorescence Intensity Geomean (normalized to background)", "setting": "[25]", "result": 8.5, "unit": "fold over background"}, {"measurement": "Fluorescence Intensity Geomean (normalized to background)", "setting": "[26]", "result": 6.9, "unit": "fold over background"}, {"measurement": "Kd", "setting": "[27]", "result": 0.392, "unit": "nM"}, {"measurement": "kon", "setting": "[28]", "result": "1.86e+06", "unit": "M⁻¹ s⁻¹"}, {"measurement": "koff", "setting": "[29]", "result": 0.000729, "unit": "s⁻¹"}, {"measurement": "Kd", "setting": "[30]", "result": 12.8, "unit": "nM"}, {"measurement": "kon", "setting": "[31]", "result": 514000, "unit": "M⁻¹ s⁻¹"}, {"measurement": "koff", "setting": "[32]", "result": 0.00658, "unit": "s⁻¹"}]}]}
